Results reported in the RNAGym collection of RNA variant scans (doi:10.1093/nar/gkz1192).

B1: CPEB3 Ribozyme (parent)
chain: UAACAGGGGGCCACAGCAGAAGCGUUCACGUCGCAGCCCCUGUCAGAUUCUGGUGAAUCUGCGAAUUCUGCUGUAUAUCUC

Variants of: B1
Assay: self-cleavage, relative activity (ratio to wild type); higher = more cleavage; in vitro, sequencing
Method in brief: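 For each CPEB3 ribozyme variant, relative activity is its cleaved/total read fraction divided by the unmutated ribozyme's. Barcoded error-prone PCR libraries were transcribed by T7 RNA polymerase (5 hours, 37°C) and held in DNase I for 15 min before an EDTA stop, with cleavage occurring throughout. Template-switching reverse transcription and Illumina sequencing were used to read the RNAs. A 5-read minimum applied, and results are the mean of three batches.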

Going from C34U A64U to C34U A64G, the self-cleavage rises from 0.13 to 0.45.

C34U U67G and C34U U67C are the same in self-cleavage: 0.12 for the first, 0.12 for the second.

Compared with C34U U67A, A35G C39G is higher in self-cleavage: 0.42 for the first, 0.59 for the second.

Going from A35G C39A to A35G C39U, the self-cleavage rises from 0.95 to 1.21.

First: C34A A56U
Second: C34A A56G
The self-cleavage of the first is higher: 0.43 for the first, 0.22 for the second.

Compared with C34U G46A, A35C A75G is higher in self-cleavage: 0.07 for the first, 0.87 for the second.

Going from A35C A75U to G33C U49C, the self-cleavage falls from 0.97 to 0.12.

Compared with A35C U66C, A35C U66A is lower in self-cleavage: 0.5 for the first, 0.21 for the second.

Going from A35G C62G to A35G C62U, the self-cleavage falls from 0.51 to 0.34.

Compared with A35G C62A, A35C A77U is higher in self-cleavage: 0.52 for the first, 1.07 for the second.

Going from A35C U49C to C34A U41G, the self-cleavage falls from 0.4 to 0.39.

Going from A35C U76C to A35C U76G, the self-cleavage falls from 0.96 to 0.77.

First: C34A U48C
Second: C34G U80C
The self-cleavage of the first is lower: 0.13 for the first, 0.24 for the second.

Going from C34U U60C to C34U U60A, the self-cleavage rises from 0.11 to 0.14.

First: C34G C59A
Second: C34G C59G
The self-cleavage of the first is higher: 0.18 for the first, 0.14 for the second.

First: A35C C38A
Second: C34G U72G
The self-cleavage of the first is higher: 0.2 for the first, 0.15 for the second.

First: C34G U72C
Second: C34G U72A
The self-cleavage of the first is higher: 0.22 for the first, 0.08 for the second.

First: G33C U67C
Second: G33C U67A
The self-cleavage of the first is lower: 0.12 for the first, 0.17 for the second.

First: C34U A75G
Second: C34U G61U
The self-cleavage of the first is lower: 0.18 for the first, 0.19 for the second.

Compared with G33C G53C, C34U U78C is higher in self-cleavage: 0.07 for the first, 0.3 for the second.

Compared with C34U C71A, C34A C44U is lower in self-cleavage: 0.13 for the first, 0.08 for the second.

First: C34A U66C
Second: G33A U76C
The self-cleavage of the first is higher: 0.46 for the first, 0.19 for the second.

Going from G33C U78C to G33C U78A, the self-cleavage falls from 0.09 to 0.08.

First: G33A U48C
Second: G33A U48G
The self-cleavage of the first is higher: 0.26 for the first, 0.18 for the second.

Going from A35G C68A to G33C U60G, the self-cleavage falls from 1.19 to 0.12.

First: G33C U60A
Second: G33C U60C
The self-cleavage of the first is higher: 0.25 for the first, 0.11 for the second.

Going from C34U G52U to G33U U60C, the self-cleavage falls from 0.33 to 0.11.

First: G33U U60A
Second: A35C G55U
The self-cleavage of the first is lower: 0.48 for the first, 0.81 for the second.

First: C34A U60C
Second: C34A A57G
The self-cleavage of the first is lower: 0.14 for the first, 0.35 for the second.

Going from A35C U41A to A35C U41G, the self-cleavage falls from 0.47 to 0.2.

First: A35C U41C
Second: A35C U78C
The self-cleavage of the first is lower: 0.72 for the first, 0.73 for the second.

Compared with A35C U78A, C34U U48G is lower in self-cleavage: 0.74 for the first, 0.3 for the second.

Compared with C34U U48C, G33C U69A is lower in self-cleavage: 0.47 for the first, 0.07 for the second.

Compared with G33C U69C, G33U U66A is higher in self-cleavage: 0.13 for the first, 0.16 for the second.

Compared with G33U U66C, A35C A65G is higher in self-cleavage: 0.13 for the first, 0.34 for the second.

First: G33U A45G
Second: G33U A45C
The self-cleavage of the first is higher: 0.13 for the first, 0.12 for the second.

Going from A35G A65C to A35G A65G, the self-cleavage rises from 0.67 to 1.19.

Compared with A35G A65U, C34U U58C is lower in self-cleavage: 0.96 for the first, 0.16 for the second.

A35G A56G and A35G A56C are the same in self-cleavage: 1.27 for the first, 1.27 for the second.

Compared with A35G A56U, C34U U66C is lower in self-cleavage: 1.24 for the first, 0.35 for the second.

Compared with A35G C38U, A35G C38A is lower in self-cleavage: 1.23 for the first, 1.21 for the second.

First: A35G C38G
Second: C34U G63U
The self-cleavage of the first is higher: 0.96 for the first, 0.38 for the second.

Going from C34U G63A to G33C G36C, the self-cleavage falls from 0.27 to 0.15.

Going from G33U G46A to C34U, the self-cleavage falls from 0.44 to 0.35.

First: C34A
Second: C34G
The self-cleavage of the first is higher: 0.34 for the first, 0.33 for the second.

First: G33C A75G
Second: C34G U41C
The self-cleavage of the first is higher: 0.18 for the first, 0.14 for the second.

Going from A35G A57U to A35G A57G, the self-cleavage rises from 1.22 to 1.27.

First: G33U U80C
Second: G33U U80A
The self-cleavage of the first is higher: 0.44 for the first, 0.25 for the second.

Going from G33C U43A to G33C U43C, the self-cleavage rises from 0.18 to 0.22.

First: C34G G42A
Second: C34U G70A
The self-cleavage of the first is higher: 0.62 for the first, 0.14 for the second.

Compared with G33C U54C, G33C U41A is higher in self-cleavage: 0.13 for the first, 0.16 for the second.

Going from C34G C44A to G33C A77G, the self-cleavage rises from 0.1 to 0.11.

Compared with G33A U80G, G33A U80A is higher in self-cleavage: 0.14 for the first, 0.29 for the second.

First: G33A U80C
Second: C34G A77C
The self-cleavage of the first is higher: 0.31 for the first, 0.08 for the second.

C34A U69C and C34A U69A are the same in self-cleavage: 0.07 for the first, 0.07 for the second.

Compared with C34U G36U, G33C is higher in self-cleavage: 0.14 for the first, 0.23 for the second.

First: G33U
Second: A35C U54C
The self-cleavage of the first is lower: 0.24 for the first, 0.8 for the second.

Compared with C34G U51C, C34U U72A is lower in self-cleavage: 0.29 for the first, 0.26 for the second.

Going from C34U U72C to C34U U72G, the self-cleavage falls from 0.63 to 0.33.

First: G33U G61C
Second: A35C C40A
The self-cleavage of the first is lower: 0.13 for the first, 0.6 for the second.

Going from G33U U58C to C34A U80C, the self-cleavage rises from 0.13 to 0.34.

First: C34A U80G
Second: A35G C59U
The self-cleavage of the first is lower: 0.33 for the first, 1.2 for the second.

Going from C34U U51A to C34U U51G, the self-cleavage rises from 0.34 to 0.54.

Compared with C34A G70C, C34U A47C is higher in self-cleavage: 0.17 for the first, 0.41 for the second.

First: C34U A47U
Second: C34U A47G
The self-cleavage of the first is lower: 0.17 for the first, 0.43 for the second.

First: A35G C37G
Second: A35G C37A
The self-cleavage of the first is higher: 0.89 for the first, 0.86 for the second.

Going from A35C A57C to A35C A57G, the self-cleavage rises from 0.28 to 0.93.

First: A35C U60C
Second: G33C A65C
The self-cleavage of the first is higher: 0.48 for the first, 0.1 for the second.

Compared with G33C A65G, C34G U66C is higher in self-cleavage: 0.18 for the first, 0.23 for the second.

Compared with G33A U66A, G33A U66C is higher in self-cleavage: 0.18 for the first, 0.31 for the second.

G33U U51C and G33U U51G are the same in self-cleavage: 0.09 for the first, 0.09 for the second.

Compared with A35G A45G, A35G A45U is lower in self-cleavage: 1.26 for the first, 1.13 for the second.

Going from A35G A45C to A35C U67A, the self-cleavage falls from 1.17 to 0.23.

Compared with A35C U67C, A35C U67G is higher in self-cleavage: 0.23 for the first, 0.39 for the second.

Compared with C34G U69A, C34G U69C is lower in self-cleavage: 0.3 for the first, 0.21 for the second.

First: A35C A64G
Second: A35C A64U
The self-cleavage of the first is higher: 0.3 for the first, 0.25 for the second.

Compared with C34A A65G, G33C A45U is lower in self-cleavage: 0.26 for the first, 0.17 for the second.

First: G33C A45G
Second: A35C U51C
The self-cleavage of the first is lower: 0.23 for the first, 0.79 for the second.

First: A35C U51A
Second: G33A G63A
The self-cleavage of the first is higher: 1 for the first, 0.14 for the second.

First: G33A G63U
Second: C34G G63C
The self-cleavage of the first is lower: 0.1 for the first, 0.24 for the second.

First: A35G A47U
Second: A35G A47C
The self-cleavage of the first is lower: 1.16 for the first, 1.3 for the second.

First: A35G A47G
Second: G33C G52A
The self-cleavage of the first is higher: 1.26 for the first, 0.19 for the second.

Going from C34G C62G to G33A G36A, the self-cleavage rises from 0.04 to 0.07.

Variant G33C U48A has a self-cleavage of 0.15.
